Ends that are not written are not given here.
Key:
[1] = test system: Immunoglobulin G (IgG); experiment: Purification from Effluent II+III, IgG mass balance; format: binding, human; settings: 1 ml Eff. II+III, 4° C.; for Mass Protein per Eluate Fraction, 1M NaCl / Mass Protein per Eluate Fraction, Flow: * as in Tables 4, 5 (below detection limit)
Summary of the method: (§1)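 Mass balance per protein was determined over the load and each step eluate (1M NaCl, 3M NaCl, 2% acetic acid) of peptide columns challenged with 1 ml Effluent II+III. The feed contained 20% ethanol and 20-25 mg/ml hSA, the flow was 865 μl/min after a 10 min residence, and the temperature was 4° C.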

[2] = molecular target: T1, A1PI (Homo sapiens, UniProt P01009); experiment: Purification of A1PI from Effluent II+III on peptide column, A1PI mass balance; format: binding; settings: A1PI, 1 ml Eff. II+III, 4° C.; for Mass Protein per Eluate Fraction, 1M NaCl / Mass Protein per Eluate Fraction, 2% Acetic Acid / Mass Protein per Eluate Fraction, Flow: * as in Tables 4, 5 (below detection limit)
T1 construct: Human plasma is currently the only approved source of therapeutic AlPI
Summary of the method: as §1

[3] = molecular target: T1, A1PI; experiment: Capture and elution of active A1PI with 2M urea buffer (elastase inhibition activity assay and immunonephelometry); format: binding; settings: 4° C.; for Mass A1PI in Urea Eluate (mg), Activity / Mass A1PI in Urea Eluate (mg), Nephelometry: 1 mg A1PI, eluted with 2M urea, pH 6; for Mass A1PI in Urea Eluate (mg), Activity: elastase inhibition activity assay; for Mass A1PI in Urea Eluate (mg), Nephelometry: immunonephelometry; for Specific Activity: mass of A1PI by activity assay relative to immunonephelometry, urea eluate
[4] = molecular target: T2, apolipoprotein alpha-1 (Apo A-1) (Homo sapiens, UniProt P02647); experiment: Purification from Effluent II+III, Apo A-1 mass balance; format: binding; settings: 1 ml Eff. II+III, 4° C.
T2 construct: Eff; II+III is a process intermediate in the Cohn plasma fractionation process; tissue Bayer Corporation (Clayton, N.C.); host or cells: plasma fraction: Cohn Effluent II+III
Summary of the method: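 Feed: 1 ml Eff. II+III (20% EtOH, 20-25 mg/ml hSA, ~1 mg/ml A1PI). 10 min residence, then 865 μl/min; steps 1M NaCl / 3M NaCl / 2% acetic acid; 4° C. Mass balance per fraction.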

[5] = test system: Immunoglobulin A (IgA); experiment: Purification from Effluent II+III, IgA mass balance; format: binding, human; settings: 1 ml Eff. II+III, 4° C.; for Mass Protein per Eluate Fraction, 1M NaCl / Mass Protein per Eluate Fraction, 2% Acetic Acid / Mass Protein per Eluate Fraction, Flow: * as in Tables 4, 5 (below detection limit)
Summary of the method: as §1

[6] = molecular target: T1, A1PI; experiment: A1PI binding on peptide-resin column, injection of 1 mg A1PI in equilibration buffer; settings: 1 mg A1PI in equilibration buffer; for Percent A1PI Eluted by Fraction Based on Absorbance at 280 nm, 1M NaCl / Percent A1PI Eluted by Fraction Based on Absorbance at 280 nm, 2% Acetic Acid / Percent A1PI Eluted by Fraction Based on Absorbance at 280 nm, Flowthrough: 4° C.; for Percent A1PI Eluted by Fraction, 1M NaCl / Percent A1PI Eluted by Fraction, 2% Acetic Acid / Percent A1PI Eluted by Fraction, Flowthrough: 20° C.
Summary of the method: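 Percent of total eluted A1PI per fraction (flowthrough, NaCl steps, 2% acetic acid) determined by A280 integration or immunonephelometry. Columns of peptide-derivatized A-Totda-Toyopearl resin (0.1 mmole/g) received 1 mg A1PI at 4 °C or 20 °C, flow 865 or 523 μl/min.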

[7] = molecular target: T1, A1PI; experiment: A1PI purification from 5 mg hSA + 1 mg A1PI on peptide column, A1PI mass balance; format: binding; settings: for Mass AlPI Eluted in Acid Eluate: nephelometry; for Mass Protein per Eluate Fraction, 1M NaCl / Mass Protein per Eluate Fraction, 2% Ac. Acid / Mass Protein per Eluate Fraction, 3M NaCl / Mass Protein per Eluate Fraction, Flow / Percent Eluted by Fraction, 1M NaCl / Percent Eluted by Fraction, 2% Ac. Acid / Percent Eluted by Fraction, 3M NaCl / Percent Eluted by Fraction, Flow: A1PI, 5 mg hSA + 1 mg A1PI; for Mass Protein per Eluate Fraction, 1M NaCl / Mass Protein per Eluate Fraction, 2% Ac. Acid / Mass Protein per Eluate Fraction, 3M NaCl / Mass Protein per Eluate Fraction, Flow: * Below detection limit; for Percent Eluted by Fraction, 1M NaCl / Percent Eluted by Fraction, 2% Ac. Acid / Percent Eluted by Fraction, 3M NaCl / Percent Eluted by Fraction, Flow: relative to total eluted
Summary of the method: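 Mass balance by immunonephelometry of fractions from step elutions (1M NaCl, 3M NaCl, 2% acetic acid, neutralised with Tris) at 865 μl/min. Sample was a mixture of 1 mg A1PI and 5 mg hSA held 10 min on peptide-derivatised Toyopearl columns (0.1 mmole/g) at 4 °C or 20 °C.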

[8] = * as in Tables 4, 5 (below detection limit)

T1 sequence (P01009 25-418): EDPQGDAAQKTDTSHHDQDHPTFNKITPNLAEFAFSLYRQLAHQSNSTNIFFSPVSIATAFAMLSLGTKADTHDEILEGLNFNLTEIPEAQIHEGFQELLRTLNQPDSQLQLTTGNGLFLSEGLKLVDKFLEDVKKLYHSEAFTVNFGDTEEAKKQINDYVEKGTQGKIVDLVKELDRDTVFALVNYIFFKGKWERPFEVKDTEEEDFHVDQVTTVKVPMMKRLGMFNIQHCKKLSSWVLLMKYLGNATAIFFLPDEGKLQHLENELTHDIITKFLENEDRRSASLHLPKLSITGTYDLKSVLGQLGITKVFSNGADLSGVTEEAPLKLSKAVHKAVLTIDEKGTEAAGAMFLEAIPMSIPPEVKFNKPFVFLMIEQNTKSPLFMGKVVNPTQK
T2 sequence (P02647 19-267): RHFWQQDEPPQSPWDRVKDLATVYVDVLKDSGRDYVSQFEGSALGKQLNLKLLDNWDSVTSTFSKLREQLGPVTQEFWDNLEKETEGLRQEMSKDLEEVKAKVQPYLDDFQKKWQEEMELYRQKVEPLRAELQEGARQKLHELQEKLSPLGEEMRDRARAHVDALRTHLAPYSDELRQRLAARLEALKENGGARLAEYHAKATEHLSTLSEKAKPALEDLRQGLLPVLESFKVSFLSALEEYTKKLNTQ

For PYWIVR, the “Percent Eluted by Fraction, 1M NaCl” value [1] was 10%, the “Percent Eluted by Fraction, 2% Acetic Acid” value [1] was 0% and the “Percent Eluted by Fraction, 3M NaCl” value [1] was 0%. For the same substance, the “Percent Eluted by Fraction, Flow” value [1] was 90%, the “Mass Protein per Eluate Fraction, 1M NaCl” value [1] was 0.03 mg and the “Mass Protein per Eluate Fraction, Flow” value [1] was 0.30 mg. The “Percent Eluted by Fraction, 1M NaCl” value [2] was 16%, the “Percent Eluted by Fraction, 2% Acetic Acid” value [2] was 29% and the “Percent Eluted by Fraction, 3M NaCl” value [2] was 0%. The “Percent Eluted by Fraction, Flow” value [2] was 56%, the “Mass Protein per Eluate Fraction, 1M NaCl” value [2] was 0.15 mg and the “Mass Protein per Eluate Fraction, 2% Acetic Acid” value [2] was 0.28 mg. For the same substance, the “Mass Protein per Eluate Fraction, Flow” value [2] was 0.55 mg, the “Mass A1PI in Urea Eluate (mg), Activity” value [3] was 0.37 mg and the “Mass A1PI in Urea Eluate (mg), Nephelometry” value [3] was 0.49 mg. For the same substance, the “Specific Activity” value [3] was 0.75 mg/mg, the “Percent Eluted by Fraction, 1M NaCl” value [4] was 60% and the “Percent Eluted by Fraction, 2% Acetic Acid” value [4] was 0%. The “Percent Eluted by Fraction, 3M NaCl” value [4] was 0%, the “Percent Eluted by Fraction, Flow” value [4] was 40% and the “Mass Protein per Eluate Fraction, 1M NaCl” value [4, 8] was 0.34 mg. The “Mass Protein per Eluate Fraction, Flow” value [4, 8] was 0.22 mg, the “Percent Eluted by Fraction, 1M NaCl” value [5] was 57% and the “Percent Eluted by Fraction, 2% Acetic Acid” value [5] was 22%. For the same substance, the “Percent Eluted by Fraction, 3M NaCl” value [5] was 0%, the “Percent Eluted by Fraction, Flow” value [5] was 21% and the “Mass Protein per Eluate Fraction, 1M NaCl” value [5] was 0.22 mg. The “Mass Protein per Eluate Fraction, 2% Acetic Acid” value [5] was 0.08 mg, the “Mass Protein per Eluate Fraction, Flow” value [5] was 0.08 mg and the “Percent A1PI Eluted by Fraction Based on Absorbance at 280 nm, 1M NaCl” value [6] was 74%. The “Percent A1PI Eluted by Fraction Based on Absorbance at 280 nm, 2% Acetic Acid” value [6] was 26%, the “Percent A1PI Eluted by Fraction Based on Absorbance at 280 nm, Flowthrough” value [6] was 0% and the “Percent A1PI Eluted by Fraction, 1M NaCl” value [6] was 55%. The “Percent A1PI Eluted by Fraction, 2% Acetic Acid” value [6] was 45%, the “Percent A1PI Eluted by Fraction, Flowthrough” value [6] was 0% and the “Mass AlPI Eluted in Acid Eluate” value ([7]; 250 μg AlPI injected with 5 mg hSA, 20° C.) was 0.09 mg. The “Mass AlPI Eluted in Acid Eluate” value ([7]; 500 μg AlPI injected with 5 mg hSA, 20° C.) was 0.21 mg, the “Mass AlPI Eluted in Acid Eluate” value ([7]; 1000 μg AlPI injected with 5 mg hSA, 20° C.) was 0.30 mg and the “Mass Protein per Eluate Fraction, 1M NaCl” value ([7]; 4° C.) was 0.31 mg. The “Mass Protein per Eluate Fraction, 2% Ac. Acid” value ([7]; 4° C.) was 0.19 mg, the “Mass Protein per Eluate Fraction, 3M NaCl” value ([7]; 4° C.) was 0.02 mg and the “Mass Protein per Eluate Fraction, Flow” value ([7]; 4° C.) was 0.19 mg. For the same substance, the “Percent Eluted by Fraction, 1M NaCl” value ([7]; 4° C.) was 44%, the “Percent Eluted by Fraction, 2% Ac. Acid” value ([7]; 4° C.) was 27% and the “Percent Eluted by Fraction, 3M NaCl” value ([7]; 4° C.) was 3%. For the same substance, the “Percent Eluted by Fraction, Flow” value ([7]; 4° C.) was 27%, the “Mass Protein per Eluate Fraction, 1M NaCl” value ([7]; 20° C.) was 0.32 mg and the “Mass Protein per Eluate Fraction, 2% Ac. Acid” value ([7]; 20° C.) was 0.38 mg. The “Mass Protein per Eluate Fraction, 3M NaCl” value ([7]; 20° C.) was 0.02 mg, the “Mass Protein per Eluate Fraction, Flow” value ([7]; 20° C.) was 0.07 mg and the “Percent Eluted by Fraction, 1M NaCl” value ([7]; 20° C.) was 41%. The “Percent Eluted by Fraction, 2% Ac. Acid” value ([7]; 20° C.) was 48%, the “Percent Eluted by Fraction, 3M NaCl” value ([7]; 20° C.) was 2% and the “Percent Eluted by Fraction, Flow” value ([7]; 20° C.) was 9%.
For RAFWYI, the “Percent Eluted by Fraction, 1M NaCl” value [1] was 9%, the “Percent Eluted by Fraction, 2% Acetic Acid” value [1] was 0% and the “Percent Eluted by Fraction, 3M NaCl” value [1] was 0%. The “Percent Eluted by Fraction, Flow” value [1] was 91%, the “Mass Protein per Eluate Fraction, 1M NaCl” value [1] was 0.02 mg and the “Mass Protein per Eluate Fraction, Flow” value [1] was 0.24 mg. The “Percent Eluted by Fraction, 1M NaCl” value [2] was 4%, the “Percent Eluted by Fraction, 2% Acetic Acid” value [2] was 80% and the “Percent Eluted by Fraction, 3M NaCl” value [2] was 0%. The “Percent Eluted by Fraction, Flow” value [2] was 17%, the “Mass Protein per Eluate Fraction, 1M NaCl” value [2] was 0.04 mg and the “Mass Protein per Eluate Fraction, 2% Acetic Acid” value [2] was 0.87 mg. For the same substance, the “Mass Protein per Eluate Fraction, Flow” value [2] was 0.18 mg, the “Mass A1PI in Urea Eluate (mg), Activity” value [3] was 0.62 mg and the “Mass A1PI in Urea Eluate (mg), Nephelometry” value [3] was 0.71 mg. The “Specific Activity” value [3] was 0.87 mg/mg, the “Percent Eluted by Fraction, 1M NaCl” value [4] was 0% and the “Percent Eluted by Fraction, 2% Acetic Acid” value [4] was 100%. The “Percent Eluted by Fraction, 3M NaCl” value [4] was 0%, the “Percent Eluted by Fraction, Flow” value [4] was 0% and the “Mass Protein per Eluate Fraction, 2% Acetic Acid” value [4, 8] was 0.29 mg. For the same substance, the “Percent Eluted by Fraction, 1M NaCl” value [5] was 36%, the “Percent Eluted by Fraction, 2% Acetic Acid” value [5] was 29% and the “Percent Eluted by Fraction, 3M NaCl” value [5] was 0%. The “Percent Eluted by Fraction, Flow” value [5] was 35%, the “Mass Protein per Eluate Fraction, 1M NaCl” value [5] was 0.12 mg and the “Mass Protein per Eluate Fraction, 2% Acetic Acid” value [5] was 0.10 mg. The “Mass Protein per Eluate Fraction, Flow” value [5] was 0.12 mg, the “Percent A1PI Eluted by Fraction Based on Absorbance at 280 nm, 1M NaCl” value [6] was 55% and the “Percent A1PI Eluted by Fraction Based on Absorbance at 280 nm, 2% Acetic Acid” value [6] was 45%. For the same substance, the “Percent A1PI Eluted by Fraction Based on Absorbance at 280 nm, Flowthrough” value [6] was 0%, the “Percent A1PI Eluted by Fraction, 1M NaCl” value [6] was 72% and the “Percent A1PI Eluted by Fraction, 2% Acetic Acid” value [6] was 28%. For the same substance, the “Percent A1PI Eluted by Fraction, Flowthrough” value [6] was 0%, the “Mass Protein per Eluate Fraction, 1M NaCl” value ([7]; 4° C.) was 0.19 mg and the “Mass Protein per Eluate Fraction, 2% Ac. Acid” value ([7]; 4° C.) was 0.45 mg. For the same substance, the “Mass Protein per Eluate Fraction, Flow” value ([7]; 4° C.) was 0.26 mg, the “Percent Eluted by Fraction, 1M NaCl” value ([7]; 4° C.) was 21% and the “Percent Eluted by Fraction, 2% Ac. Acid” value ([7]; 4° C.) was 50%. For the same substance, the “Percent Eluted by Fraction, 3M NaCl” value ([7]; 4° C.) was 0%, the “Percent Eluted by Fraction, Flow” value ([7]; 4° C.) was 29% and the “Mass Protein per Eluate Fraction, 1M NaCl” value ([7]; 20° C.) was 0.14 mg. The “Mass Protein per Eluate Fraction, 2% Ac. Acid” value ([7]; 20° C.) was 0.54 mg, the “Mass Protein per Eluate Fraction, Flow” value ([7]; 20° C.) was 0.09 mg and the “Percent Eluted by Fraction, 1M NaCl” value ([7]; 20° C.) was 19%. The “Percent Eluted by Fraction, 2% Ac. Acid” value ([7]; 20° C.) was 70%, the “Percent Eluted by Fraction, 3M NaCl” value ([7]; 20° C.) was 0% and the “Percent Eluted by Fraction, Flow” value ([7]; 20° C.) was 11%.

— patent US5985836A, “Alpha-1 proteinase inhibitor binding peptides” (Bayer Corporation, priority 1998, dated 1999)
